Values quoted from earlier work as cited in article PMC4041481.

Biological target: His37 (UniProt position 37, IIGILHLILWI)
Conditions: M2 tetramer assembled in a lipid bilayer

In the case of “Matrix protein 2 (M2 proton channel) (Influenza A virus (strain not stated))”, the pKa is given as less than 5.0.
